Assay results as given in paper PMC8419023.

Biological target: FITC-Skp2^77−86 peptide (human) (UniProt Q13309)
Experiment: fluorescence polarisation

FITC-Skp2^77−86 peptide (human), sequence (Q13309 whole entry, looked up, tested part not stated): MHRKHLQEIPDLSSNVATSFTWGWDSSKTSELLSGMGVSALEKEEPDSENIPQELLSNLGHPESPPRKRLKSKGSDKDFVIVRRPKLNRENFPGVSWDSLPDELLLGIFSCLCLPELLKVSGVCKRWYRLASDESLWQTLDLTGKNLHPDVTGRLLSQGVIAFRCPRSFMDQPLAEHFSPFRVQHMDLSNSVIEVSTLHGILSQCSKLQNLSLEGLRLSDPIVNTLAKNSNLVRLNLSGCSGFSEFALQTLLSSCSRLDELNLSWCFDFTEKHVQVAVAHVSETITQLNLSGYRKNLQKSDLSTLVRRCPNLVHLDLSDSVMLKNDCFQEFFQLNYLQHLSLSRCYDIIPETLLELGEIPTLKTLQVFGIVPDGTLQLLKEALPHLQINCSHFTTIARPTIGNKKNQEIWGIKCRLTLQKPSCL

fold reduction of binding affinity against wild type: 5 fold
Substance: CDK2-cyclin A M210A/I213A (from UniProt P24941 1-298; P20248 173-432) (complex)
